Assay results reported in paper PMC3099344 (Structure (London, England : 1993), 2011).

B1: D. melanogaster Boca conserved core (dmBocaCC) (domain or fragment, Drosophila melanogaster)
chain: GSHMKKDIRDYSEADLERLLDQWEEDEEPLEDDELPEHLRPQPKLDLSNLDSKSPEDLLKVSKKGRTLMTFVSVTGNPTREESDTITKLWQTSLWNNHIQAERYMVDDNRAIFLFKDGTQAWDAKDFLIEQERCKGVTIENKEYPG
B2: D. melanogaster Boca structured domain (dmBocaSD) (domain or fragment, Drosophila melanogaster)
chain: GSQKHMSKKGRTLMTFVSVTGNPTREESDTITKLWQTSLWNNHIQAERYMVDDNRAIFLFKDGTQAWDAKDFLIEQERCKGVTIENKEYPG
B3: Selenomethionyl D. melanogaster Boca structured domain (SeMet dmBocaSD) (domain or fragment, Drosophila melanogaster)
chain: GSQKHMSKKGRTLMTFVSVTGNPTREESDTITKLWQTSLWNNHIQAERYMVDDNRAIFLFKDGTQAWDAKDFLIEQERCKGVTIENKEYPG
modifications: selenomethionyl (SeMet) protein
B4: M. musculus Mesd structured domain (mmMesdSD) (domain or fragment, Mus musculus)
chain: GSHMTKKGKTLMMFVTVSGNPTEKETEEITSLWQGSLFNANYDVQRFIVGSDRAIFMLRDGSYAWEIKDFLVSQDRCAEVTLEGQMYPG

Experiments:
AUC = biological target: the molecule itself; assay: AUC
crystal structure = biological target: the molecule itself; assay: crystal structure

Protein	Kd (AUC)	binding result (crystal structure)
B1	155 ± 4.6 µM	–
B2	77 ± 3.1 µM	–
B3	–	binds
B4	276 ± 13.8 µM	–
